Results reported in patent US20180346889, “DNA POLYMERASE VARIANT” (KYUSHU UNIVERSITY, NATIONAL UNIVERSITY CORPORATION, published 2018).
Where a chain is given by its changes, count along the chain named.

What was measured:
[1] = molecular target: T1, Taq58 (TaqLF P685S Y686R E687K) (Thermus aquaticus, UniProt P19821 SEQ:1-544); assay: EMSA; apparent; shifted band from 25 nM; 20 mM Tris-HCl pH 8.8, 10 mM NaCl, 5 mM MgCl2, 40 C; conditions: label: 5'-32P on d27; primer-template, 27 bp duplex with 22 nt 5' overhang on 49N
T1 chain: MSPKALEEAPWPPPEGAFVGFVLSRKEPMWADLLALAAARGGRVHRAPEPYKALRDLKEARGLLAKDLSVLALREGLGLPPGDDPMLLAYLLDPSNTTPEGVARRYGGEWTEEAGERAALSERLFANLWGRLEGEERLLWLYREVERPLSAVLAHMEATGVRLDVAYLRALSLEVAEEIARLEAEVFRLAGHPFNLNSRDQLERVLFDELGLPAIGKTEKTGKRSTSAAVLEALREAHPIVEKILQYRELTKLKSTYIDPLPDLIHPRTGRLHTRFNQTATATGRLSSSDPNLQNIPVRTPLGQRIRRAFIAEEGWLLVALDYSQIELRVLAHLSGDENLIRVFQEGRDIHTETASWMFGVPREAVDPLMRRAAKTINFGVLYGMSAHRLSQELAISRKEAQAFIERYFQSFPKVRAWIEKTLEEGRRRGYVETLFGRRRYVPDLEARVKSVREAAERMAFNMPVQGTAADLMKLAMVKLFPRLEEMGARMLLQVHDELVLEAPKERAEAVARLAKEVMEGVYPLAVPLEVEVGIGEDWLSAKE
Procedure: (§1) The affinity of variant Taq polymerases and primed DNAs was examined using a gel shift assay. The measurement was carried out in the following manner.
(§2) First, DNA in which a 27 nt of a single-stranded DNA (d27, SEQ ID NO: 50) radioactive-labeled with ³²P at 5′-terminal was annealed to a non-labeled 49 nt of a single-stranded DNA (49N, SEQ ID NO: 51) was used as a substrate DNA for the measurement of DNA binding ability. DNA polymerase proteins were added to 10 μl of Solution E [20 mM Tris-HCl, pH 8.8, 10 mM NaCl, 5 mM MgCl₂, 14 mM 2-mercaptoethanol, 0.1 mg/ml BSA and 5% (v/v) glycerol] containing 2 nM substrate DNA so as to have concentration of from 0.6 to 400 nM, and the mixture was held at 40° C. for 5 minutes. A liquid DNA-enzyme mixture was subjected to 1% agarose gel and electrophoresed in a 0.1×TAE solution [4 mM Tris base, 2 mM acetic acid and 0.1 mM EDTA]. After the termination of electrophoresis, the gel was dried, and the dried gel was exposed to an imaging plate. Typhoon TRIO+ was used to detect a labeled DNA.

[2] = molecular target: T2, Taq59 (TaqLF P685R Y686R E687R) (Thermus aquaticus, UniProt P19821 SEQ:1-544); assay: EMSA; apparent; clear shift at 25 nM, two-step shift at 400 nM; 20 mM Tris-HCl pH 8.8, 10 mM NaCl, 5 mM MgCl2, 40 C; conditions: label: 5'-32P on d27; primer-template, 27 bp duplex with 22 nt 5' overhang on 49N
T2 chain: T1 chain with S397R, K399R
Procedure: as §1, §2

B1: primed DNA d27/49N (dsDNA)
DNA 1: AGCTATGACCATGATTACGAATTGCTT
DNA 2: AGCTACCATGCCTGCACGAATTAAGCAATTCGTAATCATGGTCATAGCT
[1]
  Kd: 100 nM
[2]
  Kd: 40 nM
